T1: RTL340 (DR2/MBP-85-99), biotinylated version (human, DRA*01:01/DRB1*15:01, biotin on the Bir-A tag)
T1 chain 1: ENPVVHFFKNIVTPR
T1 chain 2: not shown
T1 chain 3: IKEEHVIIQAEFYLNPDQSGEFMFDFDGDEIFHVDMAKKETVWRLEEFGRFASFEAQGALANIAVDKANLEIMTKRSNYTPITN


Key:
[1] = molecular target: RTL342m (α1β1 domains of DR2 linked to mouse MOG-35-55 peptide) (human HLA-DR2 (DRA*01:01/DRB1*15:01) …, UniProt Q61885;IMGT); test: ELISA
[2] = molecular target: T1, RTL340 (DR2/MBP-85-99), biotinylated …; test: ELISA

fold reduction in ELISA binding to RTL342m compared to RTL1000 [1] [fold]	binding result [2]	Binder
5	–	Fab 1F11 (Fab, V domains shown) VH: QLQLQESGPGLVKPSETLSLTCTVSGVSISSRSGHWGWVRQPPGKGLEWIGSISYSGSTYYNPSLKSRVTISVDTSKNQLSLKLSSVTAADTAVYYCARESHPAAALVGWGQGTLVTVSS VL: ETTLTQSPGTLSLSPGERATLSCRASQSIINSHLAWYQQKPGQAPRLLIYGASSRATGIPDRFSGGGSGTDFTLTITRLETEDFALYFCQQYGTSPLTFGGGTRVETK
2	–	Fab 2E4 (Fab, V domains shown) VH: EVQLVESGAEVKKPGASVKVSCKASGYTFTSYYMHWVRQAPGQGLEWMGIINPSGGSTSYAQKFQGRVTMTRDTSTSTVYMELSSLRSEDTAVYYCAREGDNYYGDAFDIWGQGTMVTVSS VL: EIVLTQSPATLSLSPGERATLSCRASQSVSSYLAWYQQKPGQAPRLLIYDASNRATGIPARFSGSGSGTDFTLTISSLEPEDFAVYYCQQRSNWPPSYTFGQGTKLEIK
5	–	Fab 3A3 (Fab, V domains shown) VH: QVQLQESGGGLVKPGGSLRLSCAASGFTFSSYSMNWVRQAPGKGLEWVSSISSSSSYIYYADSVKGRFTISRDNAKNSLYLQMNSLRAEDTAVYYCARVRGHRYYYDSSGYYSSDYYYYYGMDVWGQGTTVTVSS VL: DIQLTQSPSSVSASVGDRVTITCRASQVISSWLAWYQQKPGKAPKLLISTASSLQSGVPPRFSGSGSGTDFTLTITSLQPEDFATYYCQQANSFPLTFGQGTKVEIK
–	no binding	Fab 2C3 (Fab, V domains shown) VH: QVQLVQSGGGVVQPGRSLRLSCAASGFTFSSYAMHWVRQAPGKGLEWVAVISYDGSNKYYADSVKGRFTISRDNSKNTLYLQMNSLRAEDTAVYYCARDRSFWSGYYIINYYYYGMDVWGQGTTVTVSS VL: DVVMTQSPLSLPVTPGEPASISCRSSQSLLHSDGNNYLDWYLQKPGQSPQLLIYLGSNRASGVPDRFSGSGSGTDFTLKISRVEPEDVGVYYCMQALHIPLTFGQGTRLEIK

— publication PMC3085348 (European journal of immunology, 2011)
